The source of these data is IntAct's records for PubMed 31515488.

First the molecules themselves.
B1: Nuclear pore glycoprotein p62 (Homo sapiens), P37198 (parent)
chain: MSGFNFGGTGAPTGGFTFGTAKTATTTPATGFSFSTSGTGGFNFGAPFQPATSTPSTGLFSLATQTPATQTTGFTFGTATLASGGTGFSLGIGASKLNLSNTAATPAMANPSGFGLGSSNLTNAISSTVTSSQGTAPTGFVFGPSTTSVAPATTSGGFSFTGGSTAQPSGFNIGSAGNSAQPTAPATLPFTPATPAATTAGATQPAAPTPTATITSTGPSLFASIATAPTSSATTGLSLCTPVTTAGAPTAGTQGFSLKAPGAASGTSTTTSTAATATATTTSSSSTTGFALNLKPLAPAGIPSNTAAAVTAPPGPGAAAGAAASSAMTYAQLESLINKWSLELEDQERHFLQQATQVNAWDRTLIENGEKITSLHREVEKVKLDQKRLDQELDFILSQQKELEDLLSPLEELVKEQSGTIYLQHADEEREKTYKLAENIDAQLKRMAQDLKDIIEHLNTSGAPADTSDPLQQICKILNAHMDSLQWIDQNSALLQRKVEEVTKVCEGRRKEQERSFRITFD
B2: Splicing factor 45 (Homo sapiens), Q96I25 (parent)
chain: MSLYDDLGVETSDSKTEGWSKNFKLLQSQLQVKKAALTQAKSQRTKQSTVLAPVIDLKRGGSSDDRQIVDTPPHVAAGLKDPVPSGFSAGEVLIPLADEYDPMFPNDYEKVVKRQREERQRQRELERQKEIEEREKRRKDRHEASGFARRPDPDSDEDEDYERERRKRSMGGAAIAPPTSLVEKDKELPRDFPYEEDSRPRSQSSKAAIPPPVYEEQDRPRSPTGPSNSFLANMGGTVAHKIMQKYGFREGQGLGKHEQGLSTALSVEKTSKRGGKIIVGDATEKDASKKSDSNPLTEILKCPTKVVLLRNMVGAGEVDEDLEVETKEECEKYGKVGKCVIFEIPGAPDDEAVRIFLEFERVESAIKAVVDLNGRYFGGRVVKACFYNLDKFRVLDLAEQV
B3: Protein LDOC1 (Homo sapiens), O95751 (parent)
chain: MVDELVLLLHALLMRHRALSIENSQLMEQLRLLVCERASLLRQVRPPSCPVPFPETFNGESSRLPEFIVQTASYMLVNENRFCNDAMKVAFLISLLTGEAEEWVVPYIEMDSPILGDYRAFLDEMKQCFGWDDDEDDDDEEEEDDY
partner: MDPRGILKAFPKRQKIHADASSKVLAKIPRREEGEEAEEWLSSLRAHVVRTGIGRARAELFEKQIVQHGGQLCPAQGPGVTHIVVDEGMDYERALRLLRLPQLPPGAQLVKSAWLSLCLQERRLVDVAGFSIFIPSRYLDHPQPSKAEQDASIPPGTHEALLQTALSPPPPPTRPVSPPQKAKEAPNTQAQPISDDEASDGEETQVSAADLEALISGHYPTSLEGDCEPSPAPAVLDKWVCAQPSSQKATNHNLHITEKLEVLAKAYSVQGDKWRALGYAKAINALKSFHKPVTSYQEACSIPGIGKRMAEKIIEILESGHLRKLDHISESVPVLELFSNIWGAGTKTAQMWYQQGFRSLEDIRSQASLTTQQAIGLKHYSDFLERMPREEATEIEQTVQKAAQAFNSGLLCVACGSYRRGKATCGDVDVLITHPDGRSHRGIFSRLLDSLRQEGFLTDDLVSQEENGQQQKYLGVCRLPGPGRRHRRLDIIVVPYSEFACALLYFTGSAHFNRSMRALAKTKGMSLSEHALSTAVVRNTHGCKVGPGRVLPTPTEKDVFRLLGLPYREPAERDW
B4: Vesicle transport protein SFT2B (Homo sapiens), O95562 (parent)
chain: MDKLKKVLSGQDTEDRSGLSEVVEASSLSWSTRIKGFIACFAIGILCSLLGTVLLWVPRKGLHLFAVFYTFGNIASIGSTIFLMGPVKQLKRMFEPTRLIATIMVLLCFALTLCSAFWWHNKGLALIFCILQSLALTWYSLSFIPFARDAVKKCFAVCLA
partner: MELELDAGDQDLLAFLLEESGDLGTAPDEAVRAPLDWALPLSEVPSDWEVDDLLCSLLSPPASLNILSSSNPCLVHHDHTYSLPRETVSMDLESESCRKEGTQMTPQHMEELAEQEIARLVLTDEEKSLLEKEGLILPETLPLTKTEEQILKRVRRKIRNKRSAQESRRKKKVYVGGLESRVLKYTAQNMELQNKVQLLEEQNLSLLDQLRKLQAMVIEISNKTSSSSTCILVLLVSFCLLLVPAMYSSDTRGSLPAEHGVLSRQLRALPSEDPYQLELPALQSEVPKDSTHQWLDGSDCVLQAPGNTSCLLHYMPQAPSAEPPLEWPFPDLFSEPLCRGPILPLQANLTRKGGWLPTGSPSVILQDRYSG
B5: Ligand of Numb protein X 2 (Homo sapiens), Q8N448 (parent)
chain: MGTTSDEMVSVEQTSSSSLNPLCFECGQQHWTRENHLYNYQNEVDDDLVCHICLQPLLQPLDTPCGHTFCYKCLRNFLQEKDFCPLDRKRLHFKLCKKSSILVHKLLDKLLVLCPFSSVCKDVMQRCDLEAHLKNRCPGASHRRVALERRKTSRTQAEIENENGPTLLDPAGTLSPEADCLGTGAVPVERHLTSASLSTWSEEPGLDNPAFEESAGADTTQQPLSLPEGEITTIEIHRSNPYIQLGISIVGGNETPLINIVIQEVYRDGVIARDGRLLAGDQILQVNNYNISNVSHNYARAVLSQPCNTLHLTVLRERRFGNRAHNHSDSNSPREEIFQVALHKRDSGEQLGIKLVRRTDEPGVFILDLLEGGLAAQDGRLSSNDRVLAINGHDLKYGTPELAAQIIQASGERVNLTIARPGKPQPGNTIREAGNHSSSSQHHTPPPYYSRPSSHKDLTQCVTCQEKHITVKKEPHESLGMTVAGGRGSKSGELPIFVTSVPPHGCLARDGRIKRGDVLLNINGIDLTNLSHSEAVAMLKASAASPAVALKALEVQIVEEATQNAEEQPSTFSENEYDASWSPSWVMWLGLPSTLHSCHDIVLRRSYLGSWGFSIVGGYEENHTNQPFFIKTIVLGTPAYYDGRLKCGDMIVAVNGLSTVGMSHSALVPMLKEQRNKVTLTVICWPGSLV
partner: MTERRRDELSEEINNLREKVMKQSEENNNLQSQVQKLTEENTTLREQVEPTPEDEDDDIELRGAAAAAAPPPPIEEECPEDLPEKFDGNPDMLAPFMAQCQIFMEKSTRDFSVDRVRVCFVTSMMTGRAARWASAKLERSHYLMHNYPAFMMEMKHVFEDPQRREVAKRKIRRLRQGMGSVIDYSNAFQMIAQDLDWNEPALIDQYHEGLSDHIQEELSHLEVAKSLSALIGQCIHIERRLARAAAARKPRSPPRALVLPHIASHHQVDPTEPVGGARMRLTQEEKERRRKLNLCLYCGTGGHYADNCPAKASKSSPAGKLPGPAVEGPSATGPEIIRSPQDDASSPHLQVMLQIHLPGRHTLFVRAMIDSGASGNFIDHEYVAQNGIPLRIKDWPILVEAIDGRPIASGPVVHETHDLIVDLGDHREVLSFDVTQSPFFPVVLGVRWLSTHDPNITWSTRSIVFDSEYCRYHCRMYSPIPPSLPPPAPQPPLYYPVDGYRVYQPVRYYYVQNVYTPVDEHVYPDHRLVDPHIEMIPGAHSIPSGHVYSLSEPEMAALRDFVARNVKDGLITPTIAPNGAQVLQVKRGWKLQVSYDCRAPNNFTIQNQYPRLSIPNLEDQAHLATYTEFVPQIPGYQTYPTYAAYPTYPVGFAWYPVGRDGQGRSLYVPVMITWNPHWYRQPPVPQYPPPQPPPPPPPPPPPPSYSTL
B6: Alpha-taxilin (Homo sapiens), P40222 (parent)
chain: MKNQDKKNGAAKQSNPKSSPGQPEAGPEGAQERPSQAAPAVEAEGPGSSQAPRKPEGAQARTAQSGALRDVSEELSRQLEDILSTYCVDNNQGGPGEDGAQGEPAEPEDAEKSRTYVARNGEPEPTPVVNGEKEPSKGDPNTEEIRQSDEVGDRDHRRPQEKKKAKGLGKEITLLMQTLNTLSTPEEKLAALCKKYAELLEEHRNSQKQMKLLQKKQSQLVQEKDHLRGEHSKAVLARSKLESLCRELQRHNRSLKEEGVQRAREEEEKRKEVTSHFQVTLNDIQLQMEQHNERNSKLRQENMELAERLKKLIEQYELREEHIDKVFKHKDLQQQLVDAKLQQAQEMLKEAEERHQREKDFLLKEAVESQRMCELMKQQETHLKQQLALYTEKFEEFQNTLSKSSEVFTTFKQEMEKMTKKIKKLEKETTMYRSRWESSNKALLEMAEEKTVRDKELEGLQVKIQRLEKLCRALQTERNDLNKRVQDLSAGGQGSLTDSGPERRPEGPGAQAPSSPRVTEAPCYPGAPSTEASGQTGPQEPTSARA

In the first test the parent is B1. To be noted: with nup58_human NUP58, Q9BVL2.
As for A279T, the “effect of a mutation on the interaction” value is “with no effect”.

In another test the parent is B1. To be noted: with hsf2_human HSF2, Q03933.
Chain of hsf2_human HSF2, Q03933 (Q03933 whole entry): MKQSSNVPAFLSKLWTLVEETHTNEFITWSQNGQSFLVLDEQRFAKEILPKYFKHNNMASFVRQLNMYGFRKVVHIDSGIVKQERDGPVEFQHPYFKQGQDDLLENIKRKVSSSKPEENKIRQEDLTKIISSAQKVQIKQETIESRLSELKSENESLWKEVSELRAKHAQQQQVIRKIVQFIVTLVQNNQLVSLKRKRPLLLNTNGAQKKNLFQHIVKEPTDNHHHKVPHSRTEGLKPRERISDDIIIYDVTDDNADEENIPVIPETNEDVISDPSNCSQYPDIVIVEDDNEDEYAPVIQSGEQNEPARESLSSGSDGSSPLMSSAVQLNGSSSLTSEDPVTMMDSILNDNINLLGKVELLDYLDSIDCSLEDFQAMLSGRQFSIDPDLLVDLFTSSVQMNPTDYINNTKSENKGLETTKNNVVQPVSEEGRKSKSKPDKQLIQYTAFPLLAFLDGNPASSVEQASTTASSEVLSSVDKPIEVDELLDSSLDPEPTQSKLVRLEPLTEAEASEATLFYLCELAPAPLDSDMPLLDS
Regarding A279T, the “effect of a mutation on the interaction” value is given as “with no effect”.

The variants in another test derive from B1. The note with it: with ntf2_human NUTF2, P61970.
Chain of ntf2_human NUTF2, P61970 (P61970 whole entry): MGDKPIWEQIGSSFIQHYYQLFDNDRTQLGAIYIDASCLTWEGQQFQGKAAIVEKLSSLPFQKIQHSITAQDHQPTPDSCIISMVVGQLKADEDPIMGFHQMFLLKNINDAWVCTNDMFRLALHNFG
Consider A279T, for which the “effect of a mutation on the interaction” value is given as “with no effect”.

Variants of B1 are the subject of another test. The note with it: with abi2_human ABI2, Q9NYB9.
Chain of abi2_human ABI2, Q9NYB9 (Q9NYB9 whole entry): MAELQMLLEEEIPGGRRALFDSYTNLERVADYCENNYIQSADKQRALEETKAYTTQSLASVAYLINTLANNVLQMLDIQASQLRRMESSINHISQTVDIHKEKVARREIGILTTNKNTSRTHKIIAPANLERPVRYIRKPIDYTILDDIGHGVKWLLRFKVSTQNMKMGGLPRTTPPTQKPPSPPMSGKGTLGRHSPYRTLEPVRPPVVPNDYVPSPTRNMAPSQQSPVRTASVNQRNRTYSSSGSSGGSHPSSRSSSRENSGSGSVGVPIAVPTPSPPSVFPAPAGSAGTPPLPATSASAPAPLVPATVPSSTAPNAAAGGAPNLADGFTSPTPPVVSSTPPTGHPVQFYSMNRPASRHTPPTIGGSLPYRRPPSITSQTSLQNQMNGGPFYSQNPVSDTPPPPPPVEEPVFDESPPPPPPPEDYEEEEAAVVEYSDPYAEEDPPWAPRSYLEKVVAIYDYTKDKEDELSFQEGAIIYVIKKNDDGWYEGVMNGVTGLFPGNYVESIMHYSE
Take A279T: the “effect of a mutation on the interaction” value is listed as “with no effect”.

In the next test the parent is B2. To be noted: with sat1_human SAT1, P21673.
Chain of sat1_human SAT1, P21673 (P21673 whole entry): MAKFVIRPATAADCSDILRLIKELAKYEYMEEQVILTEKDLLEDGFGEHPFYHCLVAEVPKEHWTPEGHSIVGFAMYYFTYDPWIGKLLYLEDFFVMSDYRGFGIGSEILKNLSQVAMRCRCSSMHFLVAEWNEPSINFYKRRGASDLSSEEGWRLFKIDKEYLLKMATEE
With T224I, the “effect of a mutation on the interaction” value is reported as “with no effect”.

In a further test the parent is B3. The note with it: with dpoll_human POLL.
In the case of L12H, the “effect of a mutation on the interaction” value is on record as “disrupting interaction strength”.

Variants of B4 are the subject of another test. To be noted: with creb3_human CREB3, O43889.
For T137M, the “effect of a mutation on the interaction” value is “with no effect”.

In another test the parent is B5. The note with it: with peg10_human PEG10, Q86TG7.
With T183I, the “effect of a mutation on the interaction” value was “with no effect”. On to V145I, for which the “effect of a mutation on the interaction” value is “with no effect”.

The next test covers variants of B6. The note with it: with cdr2_human CDR2, Q01850.
Chain of cdr2_human CDR2, Q01850 (Q01850 whole entry): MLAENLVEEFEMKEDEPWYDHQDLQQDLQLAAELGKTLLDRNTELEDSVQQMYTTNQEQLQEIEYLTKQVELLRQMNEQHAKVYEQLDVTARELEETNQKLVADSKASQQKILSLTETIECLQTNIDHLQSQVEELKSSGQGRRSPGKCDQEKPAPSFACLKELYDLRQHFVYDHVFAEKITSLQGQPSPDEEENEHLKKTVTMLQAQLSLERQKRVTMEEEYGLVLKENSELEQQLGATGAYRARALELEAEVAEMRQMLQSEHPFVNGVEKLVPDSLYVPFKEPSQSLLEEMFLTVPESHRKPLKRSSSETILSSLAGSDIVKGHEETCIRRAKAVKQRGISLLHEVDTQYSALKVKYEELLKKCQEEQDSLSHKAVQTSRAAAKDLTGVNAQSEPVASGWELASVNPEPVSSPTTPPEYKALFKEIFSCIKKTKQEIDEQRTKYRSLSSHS
Take R154G: the “effect of a mutation on the interaction” value is recorded as “disrupting interaction strength”.

Another test covers variants of B6. The note with it: with tfp11_human TFIP11, Q9UBB9.
Chain of tfp11_human TFIP11, Q9UBB9 (Q9UBB9 whole entry): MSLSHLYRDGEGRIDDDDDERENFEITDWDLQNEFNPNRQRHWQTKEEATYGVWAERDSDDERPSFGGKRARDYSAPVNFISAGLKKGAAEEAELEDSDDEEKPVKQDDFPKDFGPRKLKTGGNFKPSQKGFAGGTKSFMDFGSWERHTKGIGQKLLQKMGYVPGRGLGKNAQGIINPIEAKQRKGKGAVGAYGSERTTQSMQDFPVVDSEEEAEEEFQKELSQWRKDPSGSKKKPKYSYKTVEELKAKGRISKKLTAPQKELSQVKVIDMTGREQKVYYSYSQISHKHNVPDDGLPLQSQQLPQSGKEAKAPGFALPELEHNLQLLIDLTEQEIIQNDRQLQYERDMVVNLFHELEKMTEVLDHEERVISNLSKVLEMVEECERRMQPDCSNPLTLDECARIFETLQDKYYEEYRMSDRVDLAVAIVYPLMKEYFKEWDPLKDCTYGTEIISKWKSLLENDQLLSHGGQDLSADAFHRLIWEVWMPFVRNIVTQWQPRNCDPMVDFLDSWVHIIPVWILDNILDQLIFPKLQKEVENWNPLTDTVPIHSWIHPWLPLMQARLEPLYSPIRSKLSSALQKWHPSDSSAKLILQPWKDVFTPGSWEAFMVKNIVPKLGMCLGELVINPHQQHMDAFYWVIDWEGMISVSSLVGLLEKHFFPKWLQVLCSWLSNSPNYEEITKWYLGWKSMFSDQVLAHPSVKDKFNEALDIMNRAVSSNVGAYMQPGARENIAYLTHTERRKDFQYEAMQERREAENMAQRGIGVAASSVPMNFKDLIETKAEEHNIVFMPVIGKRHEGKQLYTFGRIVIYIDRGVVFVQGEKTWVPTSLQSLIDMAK
For R154G, the “effect of a mutation on the interaction” value is recorded as “disrupting interaction strength”.

In a further test the parent is B6. The note with it: with lipa1_human PPFIA1, Q13136.
Chain of lipa1_human PPFIA1, Q13136 (Q13136 whole entry): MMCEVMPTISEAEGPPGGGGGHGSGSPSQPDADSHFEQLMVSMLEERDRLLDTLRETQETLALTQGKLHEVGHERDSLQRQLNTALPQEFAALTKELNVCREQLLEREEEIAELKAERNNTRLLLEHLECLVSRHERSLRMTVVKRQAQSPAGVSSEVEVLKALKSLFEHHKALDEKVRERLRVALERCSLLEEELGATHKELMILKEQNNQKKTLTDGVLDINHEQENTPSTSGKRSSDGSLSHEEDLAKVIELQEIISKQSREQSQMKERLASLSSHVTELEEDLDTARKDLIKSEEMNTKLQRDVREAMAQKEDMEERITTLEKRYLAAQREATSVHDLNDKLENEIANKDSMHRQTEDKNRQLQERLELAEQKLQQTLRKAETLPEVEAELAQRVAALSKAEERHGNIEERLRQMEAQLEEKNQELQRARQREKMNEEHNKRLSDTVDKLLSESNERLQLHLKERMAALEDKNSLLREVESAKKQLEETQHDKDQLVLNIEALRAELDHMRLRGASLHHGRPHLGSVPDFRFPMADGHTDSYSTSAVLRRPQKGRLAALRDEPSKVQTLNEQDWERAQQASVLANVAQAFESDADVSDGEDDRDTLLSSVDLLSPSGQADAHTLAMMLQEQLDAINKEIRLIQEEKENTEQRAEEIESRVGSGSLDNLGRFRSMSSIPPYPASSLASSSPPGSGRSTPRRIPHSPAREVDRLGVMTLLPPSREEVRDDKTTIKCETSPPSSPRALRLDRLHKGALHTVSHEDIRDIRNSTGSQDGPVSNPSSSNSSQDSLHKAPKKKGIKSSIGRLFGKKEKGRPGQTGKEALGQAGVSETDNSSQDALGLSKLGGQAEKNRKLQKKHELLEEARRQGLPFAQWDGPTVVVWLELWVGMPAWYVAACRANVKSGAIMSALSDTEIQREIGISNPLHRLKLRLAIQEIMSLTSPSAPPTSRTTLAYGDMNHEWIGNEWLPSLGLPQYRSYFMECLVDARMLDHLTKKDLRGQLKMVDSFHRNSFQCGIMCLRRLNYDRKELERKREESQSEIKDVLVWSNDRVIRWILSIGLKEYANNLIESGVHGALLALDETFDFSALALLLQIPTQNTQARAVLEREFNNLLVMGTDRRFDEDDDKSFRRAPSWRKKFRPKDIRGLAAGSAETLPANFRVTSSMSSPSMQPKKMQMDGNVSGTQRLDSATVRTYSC
R154G: the “effect of a mutation on the interaction” value was “with no effect”.

A further test covers variants of B6. The note with it: with ndc80_human NDC80, O14777.
Chain of ndc80_human NDC80, O14777 (O14777 whole entry): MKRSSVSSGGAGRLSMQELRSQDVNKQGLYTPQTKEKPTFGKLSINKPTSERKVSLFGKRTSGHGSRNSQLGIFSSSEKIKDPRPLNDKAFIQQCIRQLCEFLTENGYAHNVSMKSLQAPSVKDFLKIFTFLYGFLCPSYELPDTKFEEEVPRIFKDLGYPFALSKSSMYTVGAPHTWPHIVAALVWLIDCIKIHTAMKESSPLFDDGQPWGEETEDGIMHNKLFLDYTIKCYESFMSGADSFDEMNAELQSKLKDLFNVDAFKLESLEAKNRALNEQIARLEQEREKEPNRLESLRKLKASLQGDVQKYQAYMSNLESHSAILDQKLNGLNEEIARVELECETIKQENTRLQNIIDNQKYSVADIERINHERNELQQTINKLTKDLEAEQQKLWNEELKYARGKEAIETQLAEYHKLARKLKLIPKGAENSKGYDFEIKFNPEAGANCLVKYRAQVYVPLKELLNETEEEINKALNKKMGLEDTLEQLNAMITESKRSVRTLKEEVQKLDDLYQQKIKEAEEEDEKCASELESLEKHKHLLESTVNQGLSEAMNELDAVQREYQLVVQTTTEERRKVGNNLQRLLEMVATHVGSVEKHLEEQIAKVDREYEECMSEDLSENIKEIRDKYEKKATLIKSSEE
Consider R154G, for which the “effect of a mutation on the interaction” value is “disrupting interaction strength”.
